Results taken from publication PMC10018365, “Cryo-EM structure of the fully assembled Elongator complex” (Nucleic Acids Research, 2023).

T1: Saccharomyces cerevisiae Elp1 (Saccharomyces cerevisiae, UniProt Q06706 1-1349)
T1 construct: Elp1, S. cerevisiae, full-length ORF; also called ScElp1; source: S. cerevisiae DS1-2b, overexpressed, purified within ScElongator
T1 sequence (looked up): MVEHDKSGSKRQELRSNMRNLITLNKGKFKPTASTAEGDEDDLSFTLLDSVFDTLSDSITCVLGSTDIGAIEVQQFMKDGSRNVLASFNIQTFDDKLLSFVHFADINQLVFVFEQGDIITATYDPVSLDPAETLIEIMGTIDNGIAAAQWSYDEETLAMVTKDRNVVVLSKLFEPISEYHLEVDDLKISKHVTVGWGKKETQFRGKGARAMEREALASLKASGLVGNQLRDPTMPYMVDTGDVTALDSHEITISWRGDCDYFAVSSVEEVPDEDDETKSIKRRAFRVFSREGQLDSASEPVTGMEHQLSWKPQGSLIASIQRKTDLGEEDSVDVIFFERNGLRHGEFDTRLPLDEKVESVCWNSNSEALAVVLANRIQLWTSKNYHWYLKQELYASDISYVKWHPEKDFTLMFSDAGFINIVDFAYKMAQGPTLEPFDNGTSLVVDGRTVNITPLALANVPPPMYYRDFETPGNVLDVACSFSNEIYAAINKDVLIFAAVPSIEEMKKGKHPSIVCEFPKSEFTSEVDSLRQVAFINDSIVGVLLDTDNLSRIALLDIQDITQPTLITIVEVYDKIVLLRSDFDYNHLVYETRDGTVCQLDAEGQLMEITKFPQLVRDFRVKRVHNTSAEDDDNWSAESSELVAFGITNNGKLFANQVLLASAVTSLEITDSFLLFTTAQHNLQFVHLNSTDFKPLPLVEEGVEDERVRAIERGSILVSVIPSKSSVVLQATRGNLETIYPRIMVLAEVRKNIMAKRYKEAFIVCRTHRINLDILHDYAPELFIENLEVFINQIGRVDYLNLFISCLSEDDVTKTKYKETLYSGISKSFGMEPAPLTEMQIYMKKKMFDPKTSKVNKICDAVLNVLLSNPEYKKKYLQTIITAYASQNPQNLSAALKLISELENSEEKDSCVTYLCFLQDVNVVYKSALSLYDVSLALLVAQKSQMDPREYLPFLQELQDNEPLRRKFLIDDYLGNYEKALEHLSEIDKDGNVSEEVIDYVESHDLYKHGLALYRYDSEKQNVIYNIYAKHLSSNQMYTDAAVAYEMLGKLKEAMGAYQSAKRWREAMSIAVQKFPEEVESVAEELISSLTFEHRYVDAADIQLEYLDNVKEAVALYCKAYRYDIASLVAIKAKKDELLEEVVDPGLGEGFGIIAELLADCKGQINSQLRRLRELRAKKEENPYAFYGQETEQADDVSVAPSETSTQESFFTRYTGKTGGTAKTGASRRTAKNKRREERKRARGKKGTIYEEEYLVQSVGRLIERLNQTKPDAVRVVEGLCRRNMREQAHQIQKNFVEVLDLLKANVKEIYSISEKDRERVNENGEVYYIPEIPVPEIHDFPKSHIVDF

T2: Saccharomyces cerevisiae Elp3 (Saccharomyces cerevisiae, UniProt Q02908 1-557)
T2 construct: Elp3, S. cerevisiae, full-length ORF; also called ScElp3; source: S. cerevisiae DS1-2b, overexpressed, purified within ScElongator; not shown: Twin-Strep-tag, C-terminal, kept
T2 sequence (looked up): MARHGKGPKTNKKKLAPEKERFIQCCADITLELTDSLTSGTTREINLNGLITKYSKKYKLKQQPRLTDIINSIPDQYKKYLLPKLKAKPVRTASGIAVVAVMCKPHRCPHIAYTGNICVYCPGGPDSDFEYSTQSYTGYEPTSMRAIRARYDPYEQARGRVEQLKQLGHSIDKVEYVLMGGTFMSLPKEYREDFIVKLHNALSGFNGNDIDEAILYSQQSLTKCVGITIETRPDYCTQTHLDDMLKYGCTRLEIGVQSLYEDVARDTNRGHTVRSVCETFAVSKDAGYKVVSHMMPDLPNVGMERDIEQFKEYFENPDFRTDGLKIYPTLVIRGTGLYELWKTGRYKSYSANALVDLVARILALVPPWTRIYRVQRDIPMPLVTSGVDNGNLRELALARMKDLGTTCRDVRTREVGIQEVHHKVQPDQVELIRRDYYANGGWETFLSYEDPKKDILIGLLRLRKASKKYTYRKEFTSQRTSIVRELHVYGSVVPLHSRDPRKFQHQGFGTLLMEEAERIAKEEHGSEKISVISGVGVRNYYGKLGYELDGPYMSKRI

B1: Saccharomyces cerevisiae Elp456 subcomplex (hetero-hexameric ring) (complex)
chain 1: MSFRKRGEILNDRGSGLRGPLLRGPPRTSSTPLRTGNRRAPGNVPLSDTTARLKKLNIADESKTKMGLDSSHVGVRPSPATSQPTTSTGSADLDSILGHMGLPLGNSVLVEEQSTTEFHSILGKLFAAQGIVHNRISDSSADKTRNGDTHVIVLSLNQMFAKELPGIYKGSRKQMKKNLISEEESKVTVQNLNETQRSTPSRYKDLKIAWKYKLADEKRLGSPDRDDIQQNSEYKDYNHQFDITTRLMPAPIASELTFIAPTQPVSTILSQIEQTIKRNDKKLIRIVIPSLLHPAMYPPKMFESSEIIGLMHGVRSLVKKYYERVVLFASISIDIITPPLLVLLRNMFDSVINLEPFNQEMTEFLERVYKSQPGKIQHGLVHILKLPVFTDRGEMRVLKSEWAFKNGRKKFEIEQWGIPVDDAEGSAASEQSHSHSHSDEISHNIPAKKTKISLDY
chain 2: MASSSHNPVILLKRILSLTESSPFILCLDSIAQTSYKLIQEFVHQSKSKGNEYPIVYISFETVNKPSYCTQFIDATQMDFVHLVKQIISYLPAATATQAKKHMVIIDSLNYISTEYITRFLSEIASPHCTMVATYHKDIKDENRTVIPDWNNNYPDKLTLLQFMATTIVDIDVVLTGTLDTEEVSELLNEFRIPRGLNNDIFQLRLVNKRKSGRSLEYDFIVNSNTHEYELLSTTKQEEESSSNGLETPEMLQGLTTFNLGTSNKQKLAKDQVALPFLEAQSFGQGGAIVYEYEKDDDYDEEDPYEDPF
chain 3: MGSVQRQDLVLFSDQSVLPAHFFQDSNSHNLFFITHQSCTQPLWMINALVETHVLGSPSSLNESSSSMLPSSTRSHAVLASFIHEQNYFTNSLNKLKIPSNNYNVLDFLSDFIVNNIHNKPRDKILSDVLAKFSAAIQNNPTDTIVIIEQPELLLSLVSGLTCSELNNKFITPLLRQCKVLIIVSNSDIFNIDEYDASVHSSNLQNFYKSSFIKSMINLNLNPLKTGFAKDVTGSLHVCRGGAPIATSNTSLHVVENEYLYLNEKESTKLFYR
notes: Elp4, S. cerevisiae, full-length ORF; Elp5, S. cerevisiae, full-length ORF; Elp6, S. cerevisiae, full-length ORF; Symmetric dimer of trimers; also called ScElp456; yeast Elp456; source: S. cerevisiae DS1-2b, overexpressed, purified with ScElongator (IgG Sepharose with TEV elution, StrepTrap, Superose 6); free rings seen in one data set; not shown: protein A (Staphylococcus aureus), C-terminal, …
B2: Saccharomyces cerevisiae Elp5 (natural protein, UniProt P38874 1-309, looked up)
chain: B1 chain 2
notes: Elp5, S. cerevisiae, full-length ORF; also called ScElp5; source: S. cerevisiae DS1-2b, overexpressed, purified within ScElongator
B3: Saccharomyces cerevisiae Elp4 (natural protein, UniProt Q02884 1-456, looked up)
chain: B1 chain 1
notes: Elp4, S. cerevisiae, full-length ORF; also called ScElp4; source: S. cerevisiae DS1-2b, overexpressed, purified within ScElongator
B4: Saccharomyces cerevisiae Elp6 (natural protein, UniProt Q04868 1-273, looked up)
chain: B1 chain 3
notes: Elp6, S. cerevisiae, full-length ORF; also called ScElp6; source: S. cerevisiae DS1-2b, overexpressed, purified within ScElongator; not shown: protein A (Staphylococcus aureus), C-terminal, cleaved

What was measured:
Settings in all cases: both partners purified
[1] = target: T3, Saccharomyces cerevisiae Elp123 subcomplex (Saccharomyces cerevisiae, UniProt Q06706 1-1349; P42935 1-788; Q02908 1-557); test: cryo-EM structure; ScElongator purified from overexpressing yeast, native sample (4.35 Å) and BS3-stabilised sample (6.6 Å; two-lobed map 17.2 Å); sample buffer 20 mM HEPES pH 7.5, 100 mM NaCl, 3 mM DTT
T3 construct: Elp1, S. cerevisiae, full-length ORF; Elp2, S. cerevisiae, full-length ORF; Elp3, S. cerevisiae, full-length ORF; also called ScElp123; yeast Elp123; not shown: Twin-Strep-tag, C-terminal, kept; copies: 2 + 2 + 2

[2] = target: T1, Saccharomyces cerevisiae Elp1; test: as above
[3] = target: B3; test: cryo-EM structure; free full-length ScElp456 rings found in one data set, 3.7 Å
[4] = target: T2, Saccharomyces cerevisiae Elp3; test: cryo-EM structure; ScElongator purified from overexpressing yeast, native sample (4.35 Å) and BS3-stabilised sample (6.6 Å; two-lobed map 17.2 Å); sample buffer 20 mM HEPES pH 7.5, 100 mM NaCl, 3 mM DTT
[5] = target: B2; test: cryo-EM structure; free full-length ScElp456 rings found in one data set, 3.7 Å

T3 sequence (P42935 whole entry, one chain of several): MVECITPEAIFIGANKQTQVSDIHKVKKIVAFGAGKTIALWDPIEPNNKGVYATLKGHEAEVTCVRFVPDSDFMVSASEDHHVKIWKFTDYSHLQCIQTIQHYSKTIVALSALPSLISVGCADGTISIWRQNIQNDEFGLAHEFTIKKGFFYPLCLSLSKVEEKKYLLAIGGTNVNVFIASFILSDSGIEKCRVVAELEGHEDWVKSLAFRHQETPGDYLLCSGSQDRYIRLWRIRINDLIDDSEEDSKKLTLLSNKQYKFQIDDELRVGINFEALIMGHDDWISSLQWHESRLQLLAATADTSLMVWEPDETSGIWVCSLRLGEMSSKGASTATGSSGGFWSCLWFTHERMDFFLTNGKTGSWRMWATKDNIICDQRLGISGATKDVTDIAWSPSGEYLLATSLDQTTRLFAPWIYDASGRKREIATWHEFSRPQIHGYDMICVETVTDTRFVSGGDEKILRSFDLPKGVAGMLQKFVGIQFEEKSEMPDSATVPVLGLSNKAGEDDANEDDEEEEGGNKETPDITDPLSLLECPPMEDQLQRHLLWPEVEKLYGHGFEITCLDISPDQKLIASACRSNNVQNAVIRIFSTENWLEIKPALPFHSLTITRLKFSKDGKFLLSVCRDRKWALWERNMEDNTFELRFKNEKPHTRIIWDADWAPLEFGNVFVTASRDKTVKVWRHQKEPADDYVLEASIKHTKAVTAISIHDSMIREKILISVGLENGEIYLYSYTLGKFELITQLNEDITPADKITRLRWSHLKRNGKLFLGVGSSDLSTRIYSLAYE

Row | Binder | binding result [1] | binding result [2] | binding result [3] | binding result [4] | binding result [5]
1 | B1 | binds |  |  |  | 
2 | B2 |  | binds | binds |  | 
3 | B3 |  | binds |  | binds | 
4 | B4 |  |  | binds | binds | binds
